Test results as given in doi:10.1101/2025.03.16.643548.

Target: MUC2C-N (human MUC2 4256-4803, C4786A; PTS3, VWCN, D4 and VWC1) (human)
Experiment: cross-linking

- stoichiometry N: 2
Substance: MUC2C-N (human MUC2 4256-4803, C4786A; PTS3, VWCN, D4 and VWC1) (domain or fragment)
